Reference: article PMC3605678 (The Journal of Biological Chemistry, 2013)

Columns and labels:
[1] = biological target: ERK5 kinase domain, ERK5-(1–431) (Homo sapiens, UniProt Q13164); assay: Fluorescence polarization; details: FP-based binding affinity measurements
ERK2 = ERK2 (Homo sapiens, UniProt P28482); assay: FP-based binding affinity measurements with ERK2, direct titration
ERK2, sequence (P28482 whole entry): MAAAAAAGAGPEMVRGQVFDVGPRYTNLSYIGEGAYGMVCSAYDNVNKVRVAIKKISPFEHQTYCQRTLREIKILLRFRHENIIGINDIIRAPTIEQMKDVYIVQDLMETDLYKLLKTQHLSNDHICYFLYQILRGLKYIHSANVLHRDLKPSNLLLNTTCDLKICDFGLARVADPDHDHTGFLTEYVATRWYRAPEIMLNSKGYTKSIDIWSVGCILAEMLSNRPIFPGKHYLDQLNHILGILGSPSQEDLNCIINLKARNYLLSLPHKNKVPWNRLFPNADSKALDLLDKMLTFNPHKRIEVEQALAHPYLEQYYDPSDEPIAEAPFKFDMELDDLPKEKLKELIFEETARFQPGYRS

ERK5 kinase domain, ERK5-(1–431), sequence (Q13164 1-431): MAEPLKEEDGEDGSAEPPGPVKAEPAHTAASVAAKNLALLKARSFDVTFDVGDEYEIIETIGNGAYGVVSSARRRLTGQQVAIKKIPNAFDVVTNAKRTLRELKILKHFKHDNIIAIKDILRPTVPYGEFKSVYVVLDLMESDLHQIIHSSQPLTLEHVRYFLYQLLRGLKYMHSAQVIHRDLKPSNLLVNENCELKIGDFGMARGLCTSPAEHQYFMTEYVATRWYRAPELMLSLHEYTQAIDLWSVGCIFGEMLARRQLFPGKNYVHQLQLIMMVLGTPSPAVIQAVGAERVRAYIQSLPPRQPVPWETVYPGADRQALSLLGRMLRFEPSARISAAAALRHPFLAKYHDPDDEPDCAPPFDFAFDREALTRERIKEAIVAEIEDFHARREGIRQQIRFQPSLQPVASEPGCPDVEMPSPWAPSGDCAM

Binding to ERK5 (result in words) [1]: submicromolar affinity
Binding to ERK2 (result in words) (ERK2): did not bind
B1: PB1-D: MKK5 construct (16–130) comprised of the PB1 domain and the linear D-motif (protein, UniProt Q13163 16-130, looked up, fragment)
chain: VLVIRIKIPNSGAVDWTVHSGPQLLFRDVLDVIGQVLPEATTTAFEYEDEDGDRITVRSDEEMKAMLSYYYSTVMEQQVNGQLIEPLQIFPRACKPPGERNIHGLKVNTRAGPSQ
modifications: PB1 domain and D-motif
